According to article PMC8854693:

Target: intact GluN1b-GluN2B NMDA receptor (rat) (UniProt Q00960)
Sequence (Q00960 whole entry, looked up): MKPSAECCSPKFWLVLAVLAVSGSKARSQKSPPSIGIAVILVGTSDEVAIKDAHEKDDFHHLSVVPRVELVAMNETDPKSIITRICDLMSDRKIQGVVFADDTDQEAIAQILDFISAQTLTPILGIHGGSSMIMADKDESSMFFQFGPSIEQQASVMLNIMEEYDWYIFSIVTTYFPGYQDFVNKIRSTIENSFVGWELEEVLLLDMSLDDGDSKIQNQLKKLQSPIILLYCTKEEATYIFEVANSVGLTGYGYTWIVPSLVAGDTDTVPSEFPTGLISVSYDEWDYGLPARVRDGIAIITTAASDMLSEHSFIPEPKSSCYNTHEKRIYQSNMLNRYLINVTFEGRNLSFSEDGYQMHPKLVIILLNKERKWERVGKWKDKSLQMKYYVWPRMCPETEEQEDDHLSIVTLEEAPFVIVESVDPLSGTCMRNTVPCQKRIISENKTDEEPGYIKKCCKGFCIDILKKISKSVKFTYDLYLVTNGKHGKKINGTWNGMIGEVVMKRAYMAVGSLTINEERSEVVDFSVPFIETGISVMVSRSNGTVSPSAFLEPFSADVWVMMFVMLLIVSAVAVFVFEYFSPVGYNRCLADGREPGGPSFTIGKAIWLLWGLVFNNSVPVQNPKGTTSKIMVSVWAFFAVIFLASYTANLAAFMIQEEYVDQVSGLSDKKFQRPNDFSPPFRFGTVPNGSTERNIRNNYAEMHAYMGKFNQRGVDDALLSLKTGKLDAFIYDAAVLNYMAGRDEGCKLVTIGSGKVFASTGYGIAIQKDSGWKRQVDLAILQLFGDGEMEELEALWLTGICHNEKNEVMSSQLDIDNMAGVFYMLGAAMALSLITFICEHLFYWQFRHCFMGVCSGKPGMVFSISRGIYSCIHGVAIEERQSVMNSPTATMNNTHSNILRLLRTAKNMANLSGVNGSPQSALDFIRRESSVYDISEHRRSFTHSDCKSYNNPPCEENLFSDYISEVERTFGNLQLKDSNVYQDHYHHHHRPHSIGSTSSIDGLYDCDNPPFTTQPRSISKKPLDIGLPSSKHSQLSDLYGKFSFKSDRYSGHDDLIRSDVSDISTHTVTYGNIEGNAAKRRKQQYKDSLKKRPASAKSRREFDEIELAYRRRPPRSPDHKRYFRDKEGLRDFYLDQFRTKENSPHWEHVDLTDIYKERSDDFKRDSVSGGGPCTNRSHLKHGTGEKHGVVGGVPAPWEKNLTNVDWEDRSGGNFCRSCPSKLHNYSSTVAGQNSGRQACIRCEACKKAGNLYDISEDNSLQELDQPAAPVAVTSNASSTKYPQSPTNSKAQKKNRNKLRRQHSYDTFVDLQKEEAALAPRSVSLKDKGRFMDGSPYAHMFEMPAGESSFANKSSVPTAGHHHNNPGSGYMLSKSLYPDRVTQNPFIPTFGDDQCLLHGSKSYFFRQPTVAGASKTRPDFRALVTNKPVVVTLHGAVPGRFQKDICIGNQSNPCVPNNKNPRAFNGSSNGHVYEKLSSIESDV

B1: Fv2, variable fragment (Fv) of IgG2 (protein)
VH: DVKLQESGGGLVQPGGSLKLSCAASGFTFSSYTMSWVRQTPEKRLEWVAYISNGGGGTYYPDTVKGRFTISRDNAKNTLYLQMNSLKEDTAMYYCARPSRGGSSYWYFDVWGAGTTVTVSS
VL: DIQMTQSPSSLSASLGGKVTITCKASQDINKYIAWYQHKPGKGPRLLIHYTSSLQPGIPSRFSGSGSGRDYSFSISNLEPEDIATYYCLQYDNLYTFGGGTKLEIK
B1 was tested, and the GluN1b-GluN2B NMDAR current, TEVC on Xenopus oocytes, Fv2 at 0.1 mg/ml (% of maximum current) was 60.
